The text below walks through data of patent US20220363763A1 (ABL BIO, published 2022).

Where a chain is given by its changes, count along the chain named.

Usually Kd stands for a measure of binding affinity in units of concentration. What is called koff is the rate constant with which the complex falls apart. What is called kon is the rate constant with which the complex forms.

T1: recombinant his-tag human LAG3-ECD protein (human, UniProt P18627 23-450)
T1 construct: extracellular domain; not shown: his tag
T1 sequence (looked up): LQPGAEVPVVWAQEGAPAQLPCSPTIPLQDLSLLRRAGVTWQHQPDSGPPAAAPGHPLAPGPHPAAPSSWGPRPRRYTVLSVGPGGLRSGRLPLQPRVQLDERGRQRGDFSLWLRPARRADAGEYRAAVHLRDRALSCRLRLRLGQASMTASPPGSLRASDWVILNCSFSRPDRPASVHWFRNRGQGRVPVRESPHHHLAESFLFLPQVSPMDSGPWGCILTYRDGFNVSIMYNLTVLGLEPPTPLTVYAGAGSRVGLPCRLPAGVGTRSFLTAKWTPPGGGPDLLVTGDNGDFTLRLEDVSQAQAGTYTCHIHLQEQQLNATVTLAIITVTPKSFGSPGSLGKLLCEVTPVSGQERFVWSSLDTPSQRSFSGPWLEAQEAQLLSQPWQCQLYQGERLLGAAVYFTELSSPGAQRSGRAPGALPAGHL

B1: A1 (antibody, V domains shown)
VH: EVQLVESGGGLVQPGGSLRLSCAASGFTFSSYDMSWVRQAPGKSLEWVATISDAGGYIYYRDSVKGRFTISRDNAKNSLYLQMNSLRDEDTAVYICARELLHRYALDYWGQGTTVTVSS
VL: DIQMTQSPSSLSASVGDRVTITCKASQDVTPAVAWYQQKPGKAPKLLIYSTSSRYTGVPSRFSGSGSGTDFTFTISSLQPEDIATYYCQQHYTTPLTFGQGTKLEIK
B2: A2 (antibody, V domains shown)
VH: B1 VH with L101R, H102G
VL: B1 VL
B3: B3 (antibody, V domains shown)
VH: B1 VH with L100F, L101G, H102K
VL: B1 VL with S26K, Q89M
B4: C3 (antibody, V domains shown)
VH: B1 VH with L101H, H102F
VL: B1 VL
B5: A3 (antibody, V domains shown)
VH: B1 VH with L100F, L101G, H102K
VL: B1 VL with Y92S, T93D, T94A
B6: C4 (antibody, V domains shown)
VH: B1 VH with L100F, L101G, H102K, Y108S
VL: B1 VL with T30W, Y92S
B7: C6 (antibody, V domains shown)
VH: B1 VH with L101Y, H102F
VL: B1 VL
B8: B1 (antibody, V domains shown)
VH: B1 VH with L100I, L101F, H102N
VL: B1 VL
B9: NLAG3-HDB169-S24 (antibody, human IgG1, V domains shown)
VH: QVQLVQSGAEVKKPGSSVKVSCKASGGTFSSYAISWVRQAPGQGLEWMGGIIPIFGTANYAQKFQGRVTITADESTSTAYMELSSLRSEDTAVYYCTREPHFDYWGQGTLVTVSS
VL: EIVMTQSPSSLSASVGDRVTITCQASQDISNYLNWYQQKPGKAPKLLIYDASNLETGVPSRFSGSGSGTEFTLTISSLRPEDFATYFCQQADSFPITFGQGTRLEIKR
notes: Short label tied by its unique suffix
B10: NLAG3-HDB169-S136 (antibody, human IgG1, V domains shown)
VH: QVQLVQSGAEVKKPGSSVKVSCKASGGTFSSYAISWVRQAPGQGLEWMGGIIPIFGTANYAQKFQGRVTITADESTSTAYMELSSLRSEDTAVYYCTRGQDSTWYSSFDYWGQGTLVTVSS
VL: AIRMTQSPSSLSASVGDRVTITCRASQSISSYLNWYQQKPGKAPNLLIYAVSTLQSGVPSRFSGSGSGTVFTLTISSLQPEDFATYFCQQGNSFPLTFGGGTKVEIKR
notes: as for B9
B11: NLAG3-HDB323-S20 (antibody, human IgG1, V domains shown)
VH: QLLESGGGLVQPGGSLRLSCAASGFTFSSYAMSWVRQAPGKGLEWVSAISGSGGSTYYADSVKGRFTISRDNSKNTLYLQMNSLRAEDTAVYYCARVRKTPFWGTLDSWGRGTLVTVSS
VL: VIWMTQSPSSLSASVGDRVTITCRASQGVSSYLAWYQQKPGKAPKLLIYAASSLQSGVPSRFSGSGSGTEFTLTISSLQPEDFATYYCQQTNWFPLTFGPGTRLEIKR
notes: Human IgG1 / kappa (pFUSEss-CHIg-hG1, pFUSE2ss-CLIg-hk); Short label tied by its unique suffix
B12: NLAG3-HDB169-S128 (antibody, human IgG1, V domains shown)
VH: QVQLVQSGAEVKKPGSSVKVSCKASGGTFSSYAISWVRQAPGQGLEWMGGIIPIFGTANYAQKFQGRVTITADESTSTAYMELSSLRSEDTAVYYCARDAGPVGYYGMDVWGQGTMVTVSS
VL: AIQMTQSPSSLSASVGDRVTITCRASQGISSWLAWYQQKPGKAPKLLIYAASSLQSGVPSRFSGSGSGTDFTLTISRLQPEDFATYYCQQAKSFPLTFGGGTKVEIKR
notes: as for B9
B13: NLAG3-HDB169-S120 (antibody, human IgG1, V domains shown)
VH: QVQLVQSGAEVKKPGSSVKVSCKASGGTFSSYAISWVRQAPGQGLEWMGGIIPIFGTANYAQKFQGRVTITADESTSTAYMELSSLRSEDTAVYYCARSGDRYDFWSGYWGQGTLVTVSS
VL: B12 VL with A1E, Q3V, M4L, L11V, Q27R, S53T, R77S
notes: as for B9
B14: NLAG3-HDB169-S87 (antibody, human IgG1, V domains shown)
VH: QVQLVQSGAEVKKPGSSVKVSCKASGGTFSSYAISWVRQAPGQGLEWMGGIIPIFGTANYAQKFQGRVTITADESTSTAYMELSSLRSEDTAVYYCAKDIRWYYGMDVWGQGTTVTVSS
VL: DIVMTQSPSSVSAFVGDRVTITCRASQGVSSWLAWFQQKPGKAPKLLIYAASTLQSGVPSRFSGRGYGTEFTLTISSLQPEDLATYYCQQVKSFPLTFGGGTKVDIKR
notes: as for B9
B15: NLAG3-HDB323-S161 (antibody, human IgG1, V domains shown)
VH: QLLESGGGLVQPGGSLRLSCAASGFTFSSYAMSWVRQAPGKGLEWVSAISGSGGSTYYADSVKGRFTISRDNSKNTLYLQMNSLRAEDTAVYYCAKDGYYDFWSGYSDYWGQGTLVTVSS
VL: AIQLTQSPSSLSASVGDRVTITCRASEGISGWLAWYQQIPGKAPKLLIYAASSLETGVPSRFSGSGYGTDFTLTISSLQPEDFATYYCQQADSFPFTFGPGTKVEIKR
notes: as for B9
B16: Hu1210-40 (antibody, V domains shown)
VH: B1 VH with D53E, A54G, R61S, L100F, L101G, H102K
VL: B1 VL
notes: Hu1210 VH.4c x Vk.1; human gamma 1 / kappa constant domains
B17: Hu1210-42 (antibody, V domains shown)
VH: B1 VH with A54V, R61S, L100F, L101G, H102K
VL: B1 VL
notes: Hu1210 VH.4e x Vk.1; human gamma 1 / kappa constant domains
B18: Hu1210-28 (antibody, V domains shown)
VH: B1 VH with S44G, A54G, R61S, D88A, L100F, L101G, H102K, T114L
VL: DIQMTQSPSSLSASVGDRVTITCKASQDVTPAVAWYQQKPGKAPKLLIYSTSSRYTGVPDRFTGSGSGTDFTLTISSLQPEDFATYYCQQHYTTPLTFGQGTKLEIKR
notes: Hu1210 VH.5a x Vk.2a; human gamma 1 / kappa constant domains

For one experiment, the target named is T2, human PD-L1 (construct not stated) (human, UniProt Q9NZQ7 19-239, limits assumed).
T2 construct: also called B7-H1 (PD-L1); PD-L1 protein
T2 sequence (Q9NZQ7 19-239 limits assumed): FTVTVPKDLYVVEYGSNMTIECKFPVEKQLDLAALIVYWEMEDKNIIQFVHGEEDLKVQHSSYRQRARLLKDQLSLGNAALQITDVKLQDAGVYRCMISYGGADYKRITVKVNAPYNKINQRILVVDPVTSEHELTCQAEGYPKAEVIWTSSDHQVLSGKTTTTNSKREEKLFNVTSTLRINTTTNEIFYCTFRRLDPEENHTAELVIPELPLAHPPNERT
The experiment can be described thus: SPR Biacore, affinity ranking. (In general: SPR reads the build-up and loss of mass on a sensor chip optically.)
As to B1, the Kd came out at 1.36 nM, the koff was 0.000276 s⁻¹ and the kon turned out to be 203000 M⁻¹ s⁻¹.

Take B2: binding was put at a Kd of 2.55 nM, the koff is 0.000475 s⁻¹ and the kon was 187000 M⁻¹ s⁻¹.

The molecule B3 showed a dissociation constant Kd of 2.49 nM, a koff of 0.000296 s⁻¹ and a kon of 119000 M⁻¹ s⁻¹.

Molecule B4 came in with a Kd of 1.37 nM, a koff of 0.000299 s⁻¹ and a kon of 218000 M⁻¹ s⁻¹.

Molecule B5 returned a Kd of 1.49 nM, a koff of 0.000324 s⁻¹ and a kon of 218000 M⁻¹ s⁻¹.

In the case of B6, the Kd turned out to be 4.5 nM, the off-rate (koff) is 0.000506 s⁻¹ and the kon is 113000 M⁻¹ s⁻¹.

Consider B7, for which the affinity, expressed as Kd, was 1.63 nM; the off-rate constant (koff) was determined as 0.000334 s⁻¹; the on-rate constant (kon) was found to be 206000 M⁻¹ s⁻¹.

Molecule B8 had an equilibrium dissociation constant (Kd) of 1.6 nM, an off-rate (koff) of 0.000261 s⁻¹ and an on-rate constant (kon) of 163000 M⁻¹ s⁻¹.

The target in another experiment is T1, recombinant his-tag human LAG3-ECD …. The experiment can be described thus: SPR Biacore T200, antibody captured by anti-human Fc, LAG3-ECD-his injected. Here is the method:
The binding of the S20, S24, S27, S31, S87, S119, S120, S128, S136, S161 and T99 antibodies to recombinant his-tag human LAG3-ECD protein was examined by Biacore T200 using a capture method. Anti-LAG3 antibodies were captured using anti-human Fc antibody. The anti-human Fc antibody was coated on chip. Serial concentrations of his-tag human LAG3-ECD protein (0-4 nM) were injected over capture antibodies at the flow rate of 30 μl/min. The dissociation phase was 900 s or 550 s. The Biacore results for the anti-LAG3 antibodies have shown that these anti-LAG3 antibodies are high affinity binder to human LAG3.
Regarding B9, the dissociation constant Kd was 6.73 nM, the koff came to 0.012 s⁻¹ and the on-rate constant (kon) was determined as 1.79e+06 M⁻¹ s⁻¹.

Take B10: the Kd is 0.104 nM, the koff turned out to be 8.27e-05 s⁻¹ and the on-rate (kon) was 798000 M⁻¹ s⁻¹.

For the molecule B11, the Kd was found to be 0.0443 nM, the koff worked out at 7.33e-06 s⁻¹ and the kon worked out at 165000 M⁻¹ s⁻¹.

As to B12, the dissociation constant (Kd) turned out to be 0.815 nM, the koff was found to be 0.000817 s⁻¹ and the on-rate (kon) came to 1e+06 M⁻¹ s⁻¹.

As for B13, the Kd amounted to 1.88 nM, the dissociation rate constant (koff) was found to be 0.00264 s⁻¹ and the association rate constant (kon) came to 1.4e+06 M⁻¹ s⁻¹.

As for B14, the Kd was 0.00251 nM, the koff is 2.33e-06 s⁻¹ and the association rate constant (kon) was determined as 928000 M⁻¹ s⁻¹.

For the molecule B15, the Kd amounted to 0.892 nM, the koff came out at 0.000553 s⁻¹ and the kon was determined as 620000 M⁻¹ s⁻¹.

A further experiment deals with T3, human PD-L1-his taq protein (human, UniProt Q9NZQ7 19-239, limits assumed).
T3 construct: also called recombinant PD-L1 protein; recombinant human PD-L1; not shown: his tag
T3 sequence (Q9NZQ7 19-239 limits assumed): as above
The experiment can be described thus: SPR Biacore T200, antibody captured, PD-L1-his injected. How it is done: The binding of the humanized antibodies to recombinant PD-L1 protein (human PD-L1-his taq) was tested by BIACORE™ using a capture method. The HL1210-3 mouse mAb were captured using anti-mouse Fc antibody coated on a CM5 chip. A series dilution of human PD-L1-his taq protein was injected over captured antibody for 3 mins at a flow rate of […]. The antigen was allowed to dissociate for 900 s. All the experiments were carried out on a Biacore T200.
Regarding B16, the Kd amounted to 1.49 nM, the koff was determined as 0.000131 s⁻¹ and the on-rate constant (kon) worked out at 87700 M⁻¹ s⁻¹.

For the molecule B17, the dissociation constant (Kd) came out at 0.867 nM, the koff came to 7.53e-05 s⁻¹ and the kon turned out to be 86800 M⁻¹ s⁻¹.

The molecule B18 displayed a Kd of 0.838 nM, a dissociation rate constant (koff) of 0.000108 s⁻¹ and a kon of 129000 M⁻¹ s⁻¹.
